Measured values taken from patent US20250102513A1.

Columns and labels:
[1] = molecular target: PA peptide; test: >
[2] = molecular target: PA peptide; test: three sequential binding/encoding cycles with cycle-specific barcodes (BC4, BC5, BC13); NGS of the final product

## anti-PA antibody (Wako Chemicals)
[1]
  share of extended recording tags with all three cycle barcodes: 78%
[2]
  share of extended recording tags with one barcode: 1.1%
  share of extended recording tags with two barcodes: 20.7%
